The text below walks through data of publication PMC5587847, “IPA1 functions as a downstream transcription factor repressed by D53 in strigolactone signaling in rice” (Cell Research, 2017).

This experiment has as its target T1, HisTrx-D53 (rice (Oryza sativa L.), UniProt Q2RBP2 1-1131).
T1 construct: DWARF 53 (D53), rice; full-length CDS in an E. coli expression vector (pDEST51); also called HisTrx-D53 fusion protein; source: E. coli, purified
T1 sequence (looked up): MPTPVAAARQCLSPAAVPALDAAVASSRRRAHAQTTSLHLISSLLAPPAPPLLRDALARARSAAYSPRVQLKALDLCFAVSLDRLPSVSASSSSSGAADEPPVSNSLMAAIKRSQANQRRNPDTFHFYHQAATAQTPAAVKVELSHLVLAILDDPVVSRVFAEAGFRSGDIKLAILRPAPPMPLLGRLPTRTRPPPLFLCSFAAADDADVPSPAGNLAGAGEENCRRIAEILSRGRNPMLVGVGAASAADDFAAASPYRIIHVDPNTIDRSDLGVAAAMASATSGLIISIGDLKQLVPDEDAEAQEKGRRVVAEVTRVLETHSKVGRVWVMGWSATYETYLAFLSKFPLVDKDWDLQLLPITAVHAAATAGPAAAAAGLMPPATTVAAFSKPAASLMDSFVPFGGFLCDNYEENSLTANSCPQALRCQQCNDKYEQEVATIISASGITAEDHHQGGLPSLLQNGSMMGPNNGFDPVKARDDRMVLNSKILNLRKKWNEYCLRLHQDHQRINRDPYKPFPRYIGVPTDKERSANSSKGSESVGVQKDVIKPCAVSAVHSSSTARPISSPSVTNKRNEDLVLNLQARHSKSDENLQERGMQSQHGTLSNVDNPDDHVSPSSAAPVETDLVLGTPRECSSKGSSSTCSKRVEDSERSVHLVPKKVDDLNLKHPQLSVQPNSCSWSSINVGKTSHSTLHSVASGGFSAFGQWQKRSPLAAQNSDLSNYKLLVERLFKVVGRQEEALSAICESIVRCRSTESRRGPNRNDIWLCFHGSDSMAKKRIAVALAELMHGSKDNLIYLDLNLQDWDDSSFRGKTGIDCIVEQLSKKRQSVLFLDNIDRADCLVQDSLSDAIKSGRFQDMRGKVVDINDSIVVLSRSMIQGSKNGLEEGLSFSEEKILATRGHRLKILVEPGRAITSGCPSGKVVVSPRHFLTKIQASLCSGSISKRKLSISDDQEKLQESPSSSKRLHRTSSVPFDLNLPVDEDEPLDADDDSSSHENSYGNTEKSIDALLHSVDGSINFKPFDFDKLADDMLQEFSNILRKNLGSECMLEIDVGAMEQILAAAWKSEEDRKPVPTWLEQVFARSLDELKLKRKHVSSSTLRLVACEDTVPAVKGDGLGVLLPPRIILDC
Put plainly: pull-down; GST pull-down with HisTrx-D53 and GST-IPA1, both purified from bacteria; D53 detected by anti-D53. The conditions noted are these: both partners purified.

B1: GST-IPA1 (natural protein, rice (Oryza sativa L.), UniProt Q7EXZ2 1-417, looked up)
chain: MEMASGGGAAAAAGGGVGGSGGGGGGGDEHRQLHGLKFGKKIYFEDAAAAAGGGGTGSGSGSASAAPPSSSSKAAGGGRGGGGKNKGKGVAAAAPPPPPPPPRCQVEGCGADLSGIKNYYCRHKVCFMHSKAPRVVVAGLEQRFCQQCSRFHLLPEFDQGKRSCRRRLAGHNERRRRPQTPLASRYGRLAASVGEHRRFRSFTLDFSYPRVPSSVRNAWPAIQPGDRISGGIQWHRNVAPHGHSSAVAGYGANTYSGQGSSSSGPPVFAGPNLPPGGCLAGVGAATDSSCALSLLSTQPWDTTTHSAAASHNQAAAMSTTTSFDGNPVAPSAMAGSYMAPSPWTGSRGHEGGGRSVAHQLPHEVSLDEVHPGPSHHAHFSGELELALQGNGPAPAPRIDPGSGSTFDQTSNTMDWSL
notes: Ideal Plant Architecture 1 (IPA1, SPL14), rice; full-length CDS in pGEX-6p-1; source: E. coli (pGEX-6p-1), purified
Consider B1, for which the binding result is listed as “binds”.
